Laboratory results from US20260234242A1 (HAINAN SIMCERE ZAIMING PHARMACEUTICAL, published 2026).
Each block holds one binder with its values, some of them ahead of it.

Legend:
[1] = target: T1, his-tagged human CDH6 extracellular region protein (hCDH6 ECD-his) (human, UniProt P55285 19-615); experiment: ELISA, coated antigen; ELISA, coated hCDH6-his; later run beside the hCDH6-14 humanized antibodies (Table 19)
T1 construct: also called Human CDH6-his; hCDH6-his; not shown: his tag
T1 sequence: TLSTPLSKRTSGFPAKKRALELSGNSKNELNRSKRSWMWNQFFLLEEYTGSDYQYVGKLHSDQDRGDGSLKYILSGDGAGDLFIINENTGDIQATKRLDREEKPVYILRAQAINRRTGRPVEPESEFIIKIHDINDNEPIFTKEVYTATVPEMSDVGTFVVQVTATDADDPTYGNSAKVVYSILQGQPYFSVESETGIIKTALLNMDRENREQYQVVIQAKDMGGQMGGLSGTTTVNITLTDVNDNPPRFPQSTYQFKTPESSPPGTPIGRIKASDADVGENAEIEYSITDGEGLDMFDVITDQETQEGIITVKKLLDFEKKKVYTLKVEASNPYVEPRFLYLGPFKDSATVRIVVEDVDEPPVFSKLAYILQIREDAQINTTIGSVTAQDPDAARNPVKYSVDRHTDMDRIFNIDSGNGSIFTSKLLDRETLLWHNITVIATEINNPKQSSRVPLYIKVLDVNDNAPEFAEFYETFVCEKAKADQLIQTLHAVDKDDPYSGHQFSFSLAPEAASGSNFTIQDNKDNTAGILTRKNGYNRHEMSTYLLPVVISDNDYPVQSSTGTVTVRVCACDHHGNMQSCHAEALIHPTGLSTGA

[2] = target: T2, human CDH6 on tumor cells (OVCAR3 cells, PA-1 cells) (human, UniProt P55285 54-790); experiment: FACS, PA-1 cells
T2 sequence: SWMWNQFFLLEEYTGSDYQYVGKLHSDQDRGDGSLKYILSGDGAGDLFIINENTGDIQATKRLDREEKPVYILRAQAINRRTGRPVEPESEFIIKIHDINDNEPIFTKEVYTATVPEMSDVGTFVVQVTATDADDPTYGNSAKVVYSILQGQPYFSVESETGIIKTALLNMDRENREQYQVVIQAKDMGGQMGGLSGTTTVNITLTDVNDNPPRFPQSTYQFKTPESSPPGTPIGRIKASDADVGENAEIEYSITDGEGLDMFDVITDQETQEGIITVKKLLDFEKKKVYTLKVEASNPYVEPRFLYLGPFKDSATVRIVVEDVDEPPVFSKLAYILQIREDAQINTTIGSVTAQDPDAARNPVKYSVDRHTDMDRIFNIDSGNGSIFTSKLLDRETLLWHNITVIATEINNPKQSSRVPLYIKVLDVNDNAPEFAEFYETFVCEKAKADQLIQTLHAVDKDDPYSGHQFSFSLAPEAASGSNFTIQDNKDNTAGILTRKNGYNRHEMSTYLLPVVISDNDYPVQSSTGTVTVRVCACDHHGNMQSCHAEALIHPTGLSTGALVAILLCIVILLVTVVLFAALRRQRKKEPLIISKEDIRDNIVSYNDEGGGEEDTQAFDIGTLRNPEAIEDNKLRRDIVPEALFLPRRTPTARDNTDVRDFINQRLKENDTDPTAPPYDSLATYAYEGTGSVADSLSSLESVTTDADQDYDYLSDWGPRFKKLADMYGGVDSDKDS
Procedure, shortened: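 Chimeric or humanized hCDH6-14 antibody dilutions were incubated with PA-1 cells (moderate CDH6 expressors; OVCAR3 as high expressors) in PBS + 2% FBS for 1 h at 4 °C. A second 1 h step at 4 °C followed. Flow-cytometric MFI was curve-fitted to give EC50.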

[3] = target: T3, human CDH6 with EC3 removed, on HEK293T cells (HEK293T-hCDH6-EC3 deletion) (human, UniProt P55285 54-790); experiment: FACS, HEK293T-hCDH6-EC3 deletion cells
T3 construct: Signal peptide not removed here
T3 sequence: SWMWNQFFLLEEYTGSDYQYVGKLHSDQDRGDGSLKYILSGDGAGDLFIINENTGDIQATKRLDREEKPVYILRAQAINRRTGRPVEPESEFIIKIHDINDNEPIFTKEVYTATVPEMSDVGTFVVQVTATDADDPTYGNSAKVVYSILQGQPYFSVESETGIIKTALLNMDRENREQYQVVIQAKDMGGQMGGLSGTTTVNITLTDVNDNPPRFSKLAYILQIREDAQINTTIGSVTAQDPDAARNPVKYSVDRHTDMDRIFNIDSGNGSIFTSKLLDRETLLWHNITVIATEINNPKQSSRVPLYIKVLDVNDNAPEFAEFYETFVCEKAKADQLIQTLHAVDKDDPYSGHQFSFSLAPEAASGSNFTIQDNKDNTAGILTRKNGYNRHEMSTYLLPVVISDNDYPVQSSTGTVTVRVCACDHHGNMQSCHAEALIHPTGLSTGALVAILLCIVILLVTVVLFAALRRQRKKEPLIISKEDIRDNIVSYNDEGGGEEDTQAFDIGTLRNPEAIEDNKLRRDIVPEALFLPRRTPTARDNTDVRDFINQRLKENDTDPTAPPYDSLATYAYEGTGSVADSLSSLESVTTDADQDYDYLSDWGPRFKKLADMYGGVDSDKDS

- EC50 [1]: 0.034 nM
- EC50 [2]: 0.27 nM
- Max MFI [2]: 4260 MFI
B1: CHI-CDH6-14 (antibody, human IgG1, kappa, V domains shown)
VH: QIQLQQSGPELVKPGTSVKISCKASGYTFTDNYINWVRQRPGQGLEWIGWIYPGTGNSYYNEKFKGKATLTVDTSSSTAYMQFSSLTSEDSAVYLCASSYGDSFDYWGQGTTLTVSS
VL: DIQMTQTTSSLSASLGNRVTISCRASQDIRNYLNWYQQKPDGTFKLLISYTSRLHSGVPSRFSGSGSGTDYSLTVSNLEPEDIATYYCQQYSQLPWTFGGGSRLEIKR
notes: also called CHI-hCDH6-14; CH1-CDH6-14

- binding result [3]: no binding
B2: CHI-CDH6-12 (antibody, human IgG1, kappa, V domains shown)
VH: EVNLVESGGGLVQPGDSLTLSCSASGFTFTDYYMSWVRQFPGKALEWLALIRNKANSYTTEYSASVKGRFTISRDNSQSILYLQMNALRAEDSATYYCARDSYYSHDGFAYWGQGTLVTVSA
VL: DIVLTQSPASLAVSLGQRATISCRASKSVSTSSYTYMHWYQQKPGQPPKLLIKFASYLESGVPARFSGSGSGTDFTLNIHPVEEEDAATYYCQHSREFPFTFGTGTKLEIKR
notes: also called CH1-CDH6-12; chimeric antibody of murine CDH6-12
